This is an account of results in patent US20140294815A1 (NVIP, published 2014).

Assay [1] concerns the target T1, canine tumour necrosis factor alpha (canine, UniProt P51742 77-233).
T1 construct: Coated at 5 ug/ml in the ELISA; used at 1 ng/mL in the reporter assay; also called canine TNF; canine TNFa
Nature of the assay: binding assay of FIG. 12(a) Panel C, compared with the D2E7 based MAbs.

The target in the next assay is T2, human TNF (human, UniProt P01375 77-233).
T2 construct: also called huTNF
T2 sequence (P01375 77-233 limits assumed): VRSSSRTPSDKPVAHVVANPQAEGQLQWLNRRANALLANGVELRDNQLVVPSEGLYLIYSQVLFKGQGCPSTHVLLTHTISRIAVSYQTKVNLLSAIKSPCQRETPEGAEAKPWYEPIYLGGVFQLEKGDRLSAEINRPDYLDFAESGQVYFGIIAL
Kind of assay: binding assay of FIG. 12(a) Panel B.

The target of assay [2] is T1, canine tumour necrosis factor alpha. Kind of assay: ELISA, canine TNFa coated, antibody 5 ug/ml to 0.05 ug/ml. Here is the method:
The resultant supernatants were purified on Protein A, analysed by SDS-PAGE (FIG. 10A) and tested for binding to canine TNFa (coated at 5 ug/ml; R&D systems) at the indicated concentrations of antibody (ug/ml) by ELISA and detected using anti-canine polyclonal antibody-horseradish peroxidase conjugate (Sigma A9042) (FIG. 10B). The negative control was the detection polyclonal on coated antigen alone.

T1 sequence (P51742 77-233 limits assumed): as the sequence (P01375 77-233 limits assumed) above, with R2K, Q21E, N30S, R44T, V49I, E53D, I83F, A109T, R138L, D140N counted along it

B1: caninised anti-huTNF MAb 148 (SEQ ID NO:18 plus SEQ ID NO:19) (antibody, V domains shown)
VH: EVQLVESGGGVVQPGGSLRLSCAASGFIFSSYAMRWVRQAPGKGLEWVAFMSYDGSNKKYADSVKGRFTISRDNSKNTLYLQMNSLRAEDTAVYYCARDRGIAAGGNYYYYGMDVWGQGTSVTVSS
VL: EIVMTQSPASLSLSPGEKATISCRASQSVYSYLAWYQQKPGQAPRLLIYDASNRATGVPSRFSGSGSGTDFTLTISSLEPEDVAVYYCQQPSNWPPFTFGPGTKVDIKR
notes: Expressed in CHO cells and purified by Protein A chromatography; also called ca148-HCB
With B1, the binding result in assay [1] is recorded as “no binding”; in the assay with human TNF, “binds”.

B2: caninised anti-TNF monoclonal antibody (SEQ ID NO:3 light chain plus SEQ ID NO:5 heavy chain), based on D2E7 (antibody, V domains shown)
VH: not shown
VL: DIVMTQSPASLSLSQEEKVTITCRASQGIRNYLAWYQQKPGQAPKLLIYAASTLQSGVPSRFSGSGSGTDFTLTISSLEPEDVAVYYCQRYNRAPYTFGQGTKVEIKR
notes: canine IgG-B heavy chain, kappa light chain; also called ca-HCB+ca-kLC; caninised (Ca) D2E7 based MAb
B2: the binding result (in assay [2]; in the assay with human TNF) was “binds” each time.
